# In US20060078880:
# pKd: −log10 of the molar value.
# How the values were obtained:
# [1] = test system: C7.GAT C7 finger-3 helix RSDERKR replaced by TSGNLVR (SEQ 51) (synthetic); assay: EMSA; conditions: [none]; gel mobility shift; exact target oligo not stated
# [2] = test system: C7.GCG (C7) none; finger-3 helix RSDERKR (SEQ 50) (synthetic); assay: EMSA; conditions: CITED Segal 1999, exact target oligo not stated; cited from earlier work
Sequence,pKd [1],pKd [2]
"GATTGGGCG (double strand) [C7.GAT target, finger-2 subsite TGG]",6.40,
"GCGTGGGCG (double strand) [C7 target, finger-2 subsite TGG]",,9.30
